Substitutions are numbered along the chain they refer to.
B1: wild-type Tsa1 (recombinant, 6X-His tagged) (enzyme, S. cerevisiae)
chain: MVAQVQKQAPTFKKTAVVDGVFDEVSLDKYKGKYVVLAFIPLAFTFVCPTEIIAFSEAAKKFEEQGAQVLFASTDSEYSLLAWTNIPRKEGGLGPINIPLLADTNHSLSRDYGVLIEEEGVALRGLFIIDPKGVIRHITINDLPVGRNVDEALRLVEAFQWTDKNGTVLPCNWTPGAATIKPTVEDSKEYFEAANK
B2: F^44A Tsa1 (recombinant, 6X-His tagged) (enzyme, S. cerevisiae)
chain: B1 chain with F44A
B3: F^44L Tsa1 (recombinant, 6X-His tagged) (enzyme, S. cerevisiae)
chain: B1 chain with F44L
B4: Y^78A Tsa1 (recombinant, 6X-His tagged) (enzyme, S. cerevisiae)
chain: B1 chain with Y78A
B5: FYL Tsa1 (F^44L,Y^78L; recombinant, 6X-His tagged) (enzyme, S. cerevisiae)
chain: B1 chain with F44L, Y78L
B6: FYA Tsa1 (F^44A,Y^78A; recombinant, 6X-His tagged) (enzyme, S. cerevisiae)
chain: B1 chain with F44A, Y78A
B7: Y^78L Tsa1 (recombinant, 6X-His tagged) (enzyme, S. cerevisiae)
chain: B1 chain with Y78L

Molecular target: the molecule itself
Assay: native gel or EMSA

Protein	stoichiometry N
B1	10
B2	2

Molecular target: the molecule itself
Assay: SEC-MALS

Protein	stoichiometry N
B3	2
B4	2
B5	2
B6	2
B7	2

From article PMC7036284 (Chemical research in toxicology, 2019)
